Measured values reported in US20110262929A1 (FORERUNNER PHARMA RESEARCH, published 2011).
Residue numbers refer to the chain shown, from its start. Each block holds one binder with its values, some of them ahead of it.

Tests used:
[1] = target: T1, C-terminal V5 tagged HS6ST2_N-long (HS6ST2_N-long_ctV5), expressed in CHO DG44 cells (human, UniProt Q96MM7 1-605); test: flow cytometry on HS6ST2_N-long_ctV5_CHO cells
T1 construct: On cells in flow cytometry; also called Q96MM7-1
T1 sequence: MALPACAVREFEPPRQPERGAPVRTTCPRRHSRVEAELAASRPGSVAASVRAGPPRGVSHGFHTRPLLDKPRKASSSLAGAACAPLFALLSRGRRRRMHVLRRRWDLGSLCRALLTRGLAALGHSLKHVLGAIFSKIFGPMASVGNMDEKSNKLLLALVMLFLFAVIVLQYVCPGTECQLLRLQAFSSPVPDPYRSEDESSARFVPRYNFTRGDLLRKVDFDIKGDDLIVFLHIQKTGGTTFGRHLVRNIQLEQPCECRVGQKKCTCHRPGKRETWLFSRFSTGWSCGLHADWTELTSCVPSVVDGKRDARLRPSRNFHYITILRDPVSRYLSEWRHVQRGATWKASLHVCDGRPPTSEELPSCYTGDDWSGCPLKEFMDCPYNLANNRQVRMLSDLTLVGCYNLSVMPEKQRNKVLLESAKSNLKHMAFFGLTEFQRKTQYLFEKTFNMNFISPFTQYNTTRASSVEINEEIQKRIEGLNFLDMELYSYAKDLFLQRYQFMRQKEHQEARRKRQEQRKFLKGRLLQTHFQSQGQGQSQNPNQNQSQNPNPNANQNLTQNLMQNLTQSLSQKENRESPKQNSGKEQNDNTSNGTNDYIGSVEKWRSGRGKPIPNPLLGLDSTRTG
Protocol: (§1) Each anti-HS6ST2 antibody or mouse IgG1 (mIgG1, BD Biosciences Pharmingen) as a negative control was added to a final concentration of 2 μg/mL into 96-well U-bottom plates (Becton Dickinson) containing 5×10⁴ cells suspended in PBS (FACS buffer) supplemented with 0.5% bovine serum albumin and 0.1% NaN₃. After reaction on ice for 1 hour, the cells were washed with FACS buffer. Then, an FITC-labeled anti-mouse antibody (Goat F(ab′)₂ Fragment Anti-mouse IgG (H+L)-FITC, Beckman Coulter) was added as a secondary antibody, and the mixture was reacted on ice for 1 hour. The cells were washed with FACS buffer, and then suspended in FACS buffer containing 10 μg/mL propidium iodide (PI) (Sigma) and assayed by a flow cytometer (FACS Calibur, Becton Dickinson). The assay data were analyzed by CELLQuest software (Becton Dickinson), and the geo-mean of FITC fluorescent intensity was calculated for the PI-negative population of viable cells.
Binding activity of the anti-HS6ST2 antibodies prepared in Example 2 to HS6ST2_N-long was evaluated by flow cytometry. The cells used were HS6ST2_N-long_ctV5_CHO cells and HS6ST2_N-short_{—} ctV5_CHO cells as a positive control, and evaluated in the same manner as in Example 3. The primary antibodies were used at a concentration of 10 μg/mL.

[2] = target: T2, C-terminal V5 tagged mouse HS6ST2 (mHS6ST2_ctV5), expressed in CHO DG44 cells (mouse, UniProt Q80UW0 148-612); test: flow cytometry, antibody diluted 5-fold from 10 µg/mL in 6 steps
T2 construct: also called mHS6ST2_ctV5_CHO; mouse HS6ST2 transcript variant 2
T2 sequence: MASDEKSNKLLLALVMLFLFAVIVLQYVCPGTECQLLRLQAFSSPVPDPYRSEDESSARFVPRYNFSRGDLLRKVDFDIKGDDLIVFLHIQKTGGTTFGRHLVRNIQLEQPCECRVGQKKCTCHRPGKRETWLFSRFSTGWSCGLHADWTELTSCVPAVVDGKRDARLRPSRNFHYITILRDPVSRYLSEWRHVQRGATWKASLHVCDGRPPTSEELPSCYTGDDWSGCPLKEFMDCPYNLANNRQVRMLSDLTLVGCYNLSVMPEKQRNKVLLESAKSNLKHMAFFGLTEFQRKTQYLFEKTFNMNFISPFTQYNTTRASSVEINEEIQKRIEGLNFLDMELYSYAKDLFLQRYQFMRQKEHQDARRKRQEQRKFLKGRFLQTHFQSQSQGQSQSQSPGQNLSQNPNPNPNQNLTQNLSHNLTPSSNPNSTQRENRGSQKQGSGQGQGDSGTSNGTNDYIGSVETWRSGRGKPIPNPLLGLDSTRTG
Protocol: (§2) Binding of the anti-HS6ST2 antibodies prepared in Example 2 to mHS6ST2 was evaluated by flow cytometry. The cells used were mHS6ST2_ctV5_CHO, HS6ST2_N-short_ctV5_CHO as a positive control, and the CHO DG44 cell line as a negative control.
as §1, with “Each anti-HS6ST2 antibody or mouse IgG1 (mIgG1, BD Biosciences Pharmingen) as a negative control was added to a final concentration of 2 μg/mL into 96-well U-bottom plates (Becton Dickinson) containing 5×10⁴ cells suspended in PBS (FACS buffer) supplemented with 0.5% bovine serum albumin and 0.1% NaN₃.” left out
It was also shown that A6 and C8 equally bind to HS6ST2 and mHS6ST2.

[3] = target: T3, C-terminal V5 tagged HS6ST2_N-short (HS6ST2_N-short_ctV5), expressed in CHO DG44 cells (human, UniProt Q96MM7 147-605); test: flow cytometry on HS6ST2_N-short_ctV5_CHO cells, antibody 2 µg/mL
T3 construct: also called Q96MM7-2
T3 sequence: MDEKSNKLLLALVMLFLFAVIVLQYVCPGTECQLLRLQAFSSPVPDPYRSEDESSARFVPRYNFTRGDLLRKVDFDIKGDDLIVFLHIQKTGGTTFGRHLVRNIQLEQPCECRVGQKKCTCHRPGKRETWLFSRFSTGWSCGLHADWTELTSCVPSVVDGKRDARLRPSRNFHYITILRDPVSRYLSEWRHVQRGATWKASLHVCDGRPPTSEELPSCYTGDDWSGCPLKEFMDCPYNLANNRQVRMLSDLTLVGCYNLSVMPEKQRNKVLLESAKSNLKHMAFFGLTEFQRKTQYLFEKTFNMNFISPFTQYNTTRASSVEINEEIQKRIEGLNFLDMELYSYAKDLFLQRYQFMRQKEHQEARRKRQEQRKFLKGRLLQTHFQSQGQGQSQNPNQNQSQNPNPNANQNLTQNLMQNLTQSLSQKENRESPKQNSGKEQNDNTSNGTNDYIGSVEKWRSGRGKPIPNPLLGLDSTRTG
Protocol: as §2, §1

binding result [1]: binds
binding result [2]: binds
binding result [3]: binds
B1: anti-HS6ST2 antibody A6 (antibody, mouse IgG1, V domains shown)
VH: EVQLQQSGAELVRSGASVKLSCTASGFNIKDYYMHWVKQRPEQGLEWIGWIDPENDDTEYAPKFQGRATMTADTSSNTAYLQLSSLTSEDTAVYYCNAGYYGSGFAYWGQGTLVTVSA
VL: DIVMTQSPSSLTVTAGEKVTMRCKSSQSLLNSGNQKNYLTWYQQKPGQPPRLLIYWASIRESGVPDRFTGSGSGTDFTLTISSVQAEDLAVYYCQNDYSYPLTFGTGTKLELK
notes: also called clone A6

binding result [1]: binds
binding result [2]: binds
binding result [3]: binds
B2: anti-HS6ST2 antibody C8 (antibody, mouse IgG1, V domains shown)
VH: B1 VH with E54D, R67K, Y100N, Y101G, G102N, S103Y, G104W
VL: DVVMTQTPLSLPVSLGDQASISCRSSQSLVHSNGNTYLHWNLQKPGQSPKLLIYKVSNRFSGVPDRFSGSGSGTDFTLKISRVEAEDLGVYFCSQTTLVPYTFGGGTKLEIK
notes: also called clone C8; C8-biotin
